± gives the uncertainty stated by the source.
Test: self-splicing fitness, log relative to wild type (ln ratio); higher = more splicing; Tetrahymena group I intron in knt gene, E. coli kanamycin selection, DiMSum; sequences stand for … in CUCUCU…GGAGGGAAAAGUUAUCAGGCAUGCACCUGGUAGCUAGUCUUUAAACCAAUAGAUUGCAUCGGUUUAAAAGGCAAGACCGUCAAAUUGCGGGAAAGGGGUCAACAGCCGUUCAGUACCAAGUCUCAGGGGAAACUUUGAGAUGGCCUUGCAAAGGGUAUGGUAAUAAGCUGACGGACAUGGUCCUAACCACGCAGCCAAGUCCUAAGUCAACAGAUCUUCUGUUGAUAUGGAUGCAGUUCACAGACUAAAUGUCGGUCGGGGAAGAUGUAUUCUUCUCAUAAGAUAUAGUCGGACCUCUCCUUAAUGGGAGCUAGCGGAUGAAGUGAUGCAACACUGGAGCCGCUGGGAACUAAUUUGUAUGCGAAAGUAUAUUGAUUAGUUUUGGAGUACUCGUGGUCG
Procedure, shortened: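 Pooled colonies went to amplicon sequencing on an Illumina HiSeq 2500 after six replicate transformations. The plates were LB agar with 100 μg/mL carbenicillin, 50 μM IPTG and 0.2% rhamnose, with or without 25 μg/mL kanamycin, incubated overnight at 37°C or 30°C. The E. coli BL21(DE3) library had all eight P1ex-region intron nucleotides randomised, the intron placed in the knt kanamycin-resistance gene on pET-22b(+). DiMSum fitness is the error-weighted combination of replicate fold changes, kanamycin against none, normalised to wild type.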

| Sequence | self-splicing fitness (ln) (30 °C) | self-splicing fitness (ln) (37 °C) |
| --- | --- | --- |
| AAAAAGCAAUAUUACGAAAC | -3.11 ± 0.22 | -2.36 ± 0.16 |
| AAAAAGCAAUAUUACGAAUG | -1.48 ± 0.091 | -0.947 ± 0.12 |
| AAAAAGCAAUAUUACGACGA | 0.0233 ± 0.084 | -0.502 ± 0.1 |
| AAAAAGCAAUAUUACGAGCG | -0.337 ± 0.12 | -0.566 ± 0.11 |
| AAAAAGCAAUAUUACGAUCC | -0.549 ± 0.12 | 0.153 ± 0.18 |
| AAAAAGCAAUAUUACGAUCG | -0.0337 ± 0.054 | 0.0375 ± 0.068 |
| AAAAAGCAAUAUUACGAUGA | -0.913 ± 0.064 | -0.139 ± 0.084 |
| AAAAAGCAAUAUUACGAUGU | -0.893 ± 0.064 | -0.0506 ± 0.079 |
| AAAAAGCAAUAUUACGAUUC | -0.58 ± 0.091 | -0.42 ± 0.12 |
| AAAAAGCAAUAUUACGCCCU | 0.324 ± 0.1 | 0.202 ± 0.12 |
| AAAAAGCAAUAUUACGCCUA | -0.792 ± 0.12 | -0.855 ± 0.094 |
| AAAAAGCAAUAUUACGCUCA | -0.278 ± 0.058 | 0.0203 ± 0.082 |
| AAAAAGCAAUAUUACGGACC | -0.351 ± 0.092 | -0.225 ± 0.11 |
| AAAAAGCAAUAUUACGGGCU | -1.55 ± 0.074 | -1.24 ± 0.099 |
| AAAAAGCAAUAUUACGGUAA | -1.31 ± 0.12 | -0.53 ± 0.11 |
| AAAAAGCAAUAUUACGGUGG | -2.28 ± 0.1 | -1.77 ± 0.13 |
| AAAAAGCAAUAUUACGUACA | -0.777 ± 0.069 | -0.613 ± 0.071 |
| AAAAAGCAAUAUUACGUAUG | -2.02 ± 0.11 | -1.63 ± 0.13 |
| AAAAAGCAAUAUUACGUGCU | -1.68 ± 0.076 | -0.538 ± 0.079 |
| AAAAAGCAAUAUUACGUGUC | -3.44 ± 0.17 | -1.79 ± 0.17 |
| AAAAAGCAAUAUUACGUUGG | -3.28 ± 0.14 | -1.15 ± 0.11 |
| AAACAGCAAUAUUACGAAAC | -2.4 ± 0.24 | -1.51 ± 0.23 |
| AAACAGCAAUAUUACGAAUU | -2.36 ± 0.11 | -1.2 ± 0.13 |
| AAACAGCAAUAUUACGACUC | -0.613 ± 0.077 | -0.502 ± 0.098 |
| AAACAGCAAUAUUACGACUU | 0.0535 ± 0.066 | 0.468 ± 0.086 |
| AAACAGCAAUAUUACGAUAA | -1.6 ± 0.085 | -0.365 ± 0.092 |

| Sequence | self-splicing fitness (ln) (30 °C) | self-splicing fitness (ln) (37 °C) |
| --- | --- | --- |
| AAACAGCAAUAUUACGAUGC | -2.27 ± 0.058 | -1.55 ± 0.074 |
| AAACAGCAAUAUUACGAUUG | -3.35 ± 0.12 | -1.76 ± 0.12 |
| AAACAGCAAUAUUACGCACC | -0.45 ± 0.084 | -0.254 ± 0.099 |
| AAACAGCAAUAUUACGCACG | -1.45 ± 0.099 | -0.888 ± 0.11 |
| AAACAGCAAUAUUACGCCGA | -1.99 ± 0.087 | -1.35 ± 0.09 |
| AAACAGCAAUAUUACGCCGU | -2.54 ± 0.13 | -1.96 ± 0.11 |
| AAACAGCAAUAUUACGCUUA | -1.92 ± 0.087 | -0.649 ± 0.094 |
| AAACAGCAAUAUUACGCUUC | -3.6 ± 0.26 | -2.35 ± 0.21 |
| AAACAGCAAUAUUACGGCCU | -1.51 ± 0.064 | -0.591 ± 0.071 |
| AAACAGCAAUAUUACGGUCA | -0.86 ± 0.089 | 0.186 ± 0.097 |
| AAACAGCAAUAUUACGGUUA | -0.306 ± 0.056 | -0.167 ± 0.066 |
| AAACAGCAAUAUUACGUGCG | -1.52 ± 0.053 | -0.389 ± 0.065 |
| AAACAGCAAUAUUACGUUCU | -0.831 ± 0.061 | -0.0204 ± 0.077 |
| AAAGAGCAAUAUUACGAAAC | -3.23 ± 0.44 | -2.67 ± 0.48 |
| AAAGAGCAAUAUUACGAACU | -1.41 ± 0.18 | -1.14 ± 0.27 |
| AAAGAGCAAUAUUACGACUU | -0.0829 ± 0.067 | -0.0473 ± 0.079 |
| AAAGAGCAAUAUUACGAGGU | -4.63 ± 0.26 | -2.82 ± 0.19 |
| AAAGAGCAAUAUUACGAUUA | -2.18 ± 0.22 | -0.939 ± 0.17 |
| AAAGAGCAAUAUUACGCCUC | -0.411 ± 0.27 |  |
| AAAGAGCAAUAUUACGCUGU | -3.2 ± 0.15 | -1.88 ± 0.16 |
| AAAGAGCAAUAUUACGCUUU | -3.18 ± 0.23 | -3.68 ± 0.36 |
| AAAGAGCAAUAUUACGGACC |  | -1.61 ± 0.3 |
| AAAGAGCAAUAUUACGGGCC | -2.09 ± 0.3 | -1.86 ± 0.41 |
| AAAGAGCAAUAUUACGGGGG | -2.5 ± 0.34 | -2.31 ± 0.39 |
| AAAGAGCAAUAUUACGGUCA | -1.91 ± 0.21 | -1.3 ± 0.17 |
| AAAGAGCAAUAUUACGGUCU | -2.5 ± 0.13 | -1.76 ± 0.14 |

| Sequence | self-splicing fitness (ln) (30 °C) | self-splicing fitness (ln) (37 °C) |
| --- | --- | --- |
| AAAGAGCAAUAUUACGUAGG | -3.36 ± 0.15 | -2.76 ± 0.25 |
| AAAGAGCAAUAUUACGUCAG | -4.01 ± 0.36 | -2.29 ± 0.32 |
| AAAGAGCAAUAUUACGUCUG | -3.55 ± 0.22 | -2.36 ± 0.2 |
| AAAGAGCAAUAUUACGUGAG | -2.95 ± 0.12 | -1.02 ± 0.12 |
| AAAGAGCAAUAUUACGUUAA | -3.16 ± 0.25 | -2.28 ± 0.28 |
| AAAGAGCAAUAUUACGUUGU | -3.11 ± 0.13 | -2.51 ± 0.2 |
| AAAUAGCAAUAUUACGACCG | -0.956 ± 0.15 | -0.441 ± 0.19 |
| AAAUAGCAAUAUUACGACGC | -0.825 ± 0.062 | 0.13 ± 0.085 |
| AAAUAGCAAUAUUACGACGU | 0.194 ± 0.083 | -0.646 ± 0.074 |
| AAAUAGCAAUAUUACGAGGA | -2.72 ± 0.19 | -1.88 ± 0.18 |
| AAAUAGCAAUAUUACGAGUA | -2.58 ± 0.19 | -1.09 ± 0.12 |
| AAAUAGCAAUAUUACGCAAG | -2.14 ± 0.094 | -1.13 ± 0.11 |
| AAAUAGCAAUAUUACGCAAU | -2.44 ± 0.13 | -0.689 ± 0.12 |
| AAAUAGCAAUAUUACGCAGA | -2.07 ± 0.26 |  |
| AAAUAGCAAUAUUACGCGAA | -1.42 ± 0.14 | -1.59 ± 0.16 |
| AAAUAGCAAUAUUACGCGAC | -2.2 ± 0.17 | -1.03 ± 0.2 |
| AAAUAGCAAUAUUACGCGCA | -0.264 ± 0.092 | -0.103 ± 0.11 |
| AAAUAGCAAUAUUACGCGCG | -0.988 ± 0.1 | -0.952 ± 0.11 |
| AAAUAGCAAUAUUACGCGUA | -2.41 ± 0.21 | -1.04 ± 0.13 |
| AAAUAGCAAUAUUACGCUCA | -0.111 ± 0.13 | 0.39 ± 0.16 |
| AAAUAGCAAUAUUACGUAGG | -2.59 ± 0.1 | -1.96 ± 0.1 |
| AAAUAGCAAUAUUACGUAUU | -2.56 ± 0.11 | -0.844 ± 0.094 |
| AAAUAGCAAUAUUACGUCCU | -0.0903 ± 0.081 | 0.319 ± 0.1 |
| AAAUAGCAAUAUUACGUGGU | -3.87 ± 0.16 | -2.84 ± 0.15 |
| AAAUAGCAAUAUUACGUUAA | -2.87 ± 0.2 | -2.1 ± 0.24 |

— the supplement of paper PMC7877785
